The text below walks through data of PMC3898874.

“And” between values parts separate entries of the source, which are not always exact repeats. Equal values may be shown once.

This test deals with T1, FLAG-tagged STAT1 (signal transducer and activator of transcription 1), P42224.
T1 chain: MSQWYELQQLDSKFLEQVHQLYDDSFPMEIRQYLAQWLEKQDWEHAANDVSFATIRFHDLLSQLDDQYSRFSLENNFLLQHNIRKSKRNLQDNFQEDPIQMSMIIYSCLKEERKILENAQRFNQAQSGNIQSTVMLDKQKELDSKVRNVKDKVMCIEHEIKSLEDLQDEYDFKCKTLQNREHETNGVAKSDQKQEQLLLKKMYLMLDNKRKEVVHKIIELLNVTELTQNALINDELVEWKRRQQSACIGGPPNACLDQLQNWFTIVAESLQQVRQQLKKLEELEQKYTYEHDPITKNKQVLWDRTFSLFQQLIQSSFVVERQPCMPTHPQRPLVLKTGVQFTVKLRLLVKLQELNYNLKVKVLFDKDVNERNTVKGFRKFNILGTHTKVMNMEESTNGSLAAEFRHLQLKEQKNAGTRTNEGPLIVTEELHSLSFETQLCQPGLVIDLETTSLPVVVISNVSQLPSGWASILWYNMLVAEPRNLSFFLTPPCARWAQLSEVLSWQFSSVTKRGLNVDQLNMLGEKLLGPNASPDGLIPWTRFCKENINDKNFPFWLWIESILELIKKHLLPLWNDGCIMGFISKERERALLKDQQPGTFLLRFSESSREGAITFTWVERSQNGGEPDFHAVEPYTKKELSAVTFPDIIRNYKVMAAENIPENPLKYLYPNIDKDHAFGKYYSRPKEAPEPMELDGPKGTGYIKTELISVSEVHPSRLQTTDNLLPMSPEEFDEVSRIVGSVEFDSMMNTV
Description: co-IP; anti-FLAG M2 immunoprecipitation (protein A/G PLUS agarose, 4°C) from soluble whole-cell extracts (500 μg protein) of co-transfected HEK293T cells, untreated or treated 1 h with 50 U/ml IFNγ; extraction and wash buffer with 280 mM NaCl, 0.5% NP-40, 50 mM Tris/HCl pH 7.4; quantitative blots with anti-GFP and anti-β-arrestin1; control IP without FLAG-tagged STAT1. The following applies: remark: other sources report otherwise.

B1: FLAG-tagged STAT1 (signal transducer and activator of transcription 1), P42224 1-750 (natural protein)
chain: MSQWYELQQLDSKFLEQVHQLYDDSFPMEIRQYLAQWLEKQDWEHAANDVSFATIRFHDLLSQLDDQYSRFSLENNFLLQHNIRKSKRNLQDNFQEDPIQMSMIIYSCLKEERKILENAQRFNQAQSGNIQSTVMLDKQKELDSKVRNVKDKVMCIEHEIKSLEDLQDEYDFKCKTLQNREHETNGVAKSDQKQEQLLLKKMYLMLDNKRKEVVHKIIELLNVTELTQNALINDELVEWKRRQQSACIGGPPNACLDQLQNWFTIVAESLQQVRQQLKKLEELEQKYTYEHDPITKNKQVLWDRTFSLFQQLIQSSFVVERQPCMPTHPQRPLVLKTGVQFTVKLRLLVKLQELNYNLKVKVLFDKDVNERNTVKGFRKFNILGTHTKVMNMEESTNGSLAAEFRHLQLKEQKNAGTRTNEGPLIVTEELHSLSFETQLCQPGLVIDLETTSLPVVVISNVSQLPSGWASILWYNMLVAEPRNLSFFLTPPCARWAQLSEVLSWQFSSVTKRGLNVDQLNMLGEKLLGPNASPDGLIPWTRFCKENINDKNFPFWLWIESILELIKKHLLPLWNDGCIMGFISKERERALLKDQQPGTFLLRFSESSREGAITFTWVERSQNGGEPDFHAVEPYTKKELSAVTFPDIIRNYKVMAAENIPENPLKYLYPNIDKDHAFGKYYSRPKEAPEPMELDGPKGTGYIKTELISVSEVHPSRLQTTDNLLPMSPEEFDEVSRIVGSVEFDSMMNTV
For B1, the fold stronger co-precipitation with FLAG-tagged STAT1 than β-arrestin1-GFP (signals normalised to inputs) is 3 fold and 6 fold.
